Laboratory results: IntAct's records for PubMed 29892012

B1: Coiled-coil alpha-helical rod protein 1 (Homo sapiens), Q8TD31 (parent)
chain: MFPPSGSTGLIPPSHFQARPLSTLPRMAPTWLSDIPLVQPPGHQDVSERRLDTQRPQVTMWERDVSSDRQEPGRRGRSWGLEGSQALSQQAEVIVRQLQELRRLEEEVRLLRETSLQQKMRLEAQAMELEALARAEKAGRAEAEGLRAALAGAEVVRKNLEEGSQRELEEVQRLHQEQLSSLTQAHEEALSSLTSKAEGLEKSLSSLETRRAGEAKELAEAQREAELLRKQLSKTQEDLEAQVTLVENLRKYVGEQVPSEVHSQTWELERQKLLETMQHLQEDRDSLHATAELLQVRVQSLTHILALQEEELTRKVQPSDSLEPEFTRKCQSLLNRWREKVFALMVQLKAQELEHSDSVKQLKGQVASLQEKVTSQSQEQAILQRSLQDKAAEVEVERMGAKGLQLELSRAQEARRRWQQQTASAEEQLRLVVNAVSSSQIWLETTMAKVEGAAAQLPSLNNRLSYAVRKVHTIRGLIARKLALAQLRQESCPLPPPVTDVSLELQQLREERNRLDAELQLSARLIQQEVGRAREQGEAERQQLSKVAQQLEQELQQTQESLASLGLQLEVARQGQQESTEEAASLRQELTQQQELYGQALQEKVAEVETRLREQLSDTERRLNEARREHAKAVVSLRQIQRRAAQEKERSQELRRLQEEARKEEGQRLARRLQELERDKNLMLATLQQEGLLSRYKQQRLLTVLPSLLDKKKSVVSSPRPPECSASAPVAAAVPTRESIKGSLSVLLDDLQDLSEAISKEEAVCQGDNLDRCSSSNPQMSS
partner: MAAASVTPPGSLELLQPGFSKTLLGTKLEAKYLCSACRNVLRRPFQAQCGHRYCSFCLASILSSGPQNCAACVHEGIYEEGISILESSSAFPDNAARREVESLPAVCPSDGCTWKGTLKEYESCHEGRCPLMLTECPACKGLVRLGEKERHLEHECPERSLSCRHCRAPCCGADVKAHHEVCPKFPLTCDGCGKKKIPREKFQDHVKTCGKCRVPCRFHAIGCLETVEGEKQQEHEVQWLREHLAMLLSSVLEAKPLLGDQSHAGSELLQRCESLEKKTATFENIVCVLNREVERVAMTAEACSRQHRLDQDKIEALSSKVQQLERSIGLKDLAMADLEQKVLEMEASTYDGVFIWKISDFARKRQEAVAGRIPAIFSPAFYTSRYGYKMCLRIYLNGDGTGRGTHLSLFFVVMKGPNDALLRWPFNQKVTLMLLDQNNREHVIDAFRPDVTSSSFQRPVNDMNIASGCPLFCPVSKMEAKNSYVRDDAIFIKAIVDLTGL
B2: Coiled-coil alpha-helical rod protein 1 (Homo sapiens), Q8TD31 (parent)
chain: B1 chain
partner: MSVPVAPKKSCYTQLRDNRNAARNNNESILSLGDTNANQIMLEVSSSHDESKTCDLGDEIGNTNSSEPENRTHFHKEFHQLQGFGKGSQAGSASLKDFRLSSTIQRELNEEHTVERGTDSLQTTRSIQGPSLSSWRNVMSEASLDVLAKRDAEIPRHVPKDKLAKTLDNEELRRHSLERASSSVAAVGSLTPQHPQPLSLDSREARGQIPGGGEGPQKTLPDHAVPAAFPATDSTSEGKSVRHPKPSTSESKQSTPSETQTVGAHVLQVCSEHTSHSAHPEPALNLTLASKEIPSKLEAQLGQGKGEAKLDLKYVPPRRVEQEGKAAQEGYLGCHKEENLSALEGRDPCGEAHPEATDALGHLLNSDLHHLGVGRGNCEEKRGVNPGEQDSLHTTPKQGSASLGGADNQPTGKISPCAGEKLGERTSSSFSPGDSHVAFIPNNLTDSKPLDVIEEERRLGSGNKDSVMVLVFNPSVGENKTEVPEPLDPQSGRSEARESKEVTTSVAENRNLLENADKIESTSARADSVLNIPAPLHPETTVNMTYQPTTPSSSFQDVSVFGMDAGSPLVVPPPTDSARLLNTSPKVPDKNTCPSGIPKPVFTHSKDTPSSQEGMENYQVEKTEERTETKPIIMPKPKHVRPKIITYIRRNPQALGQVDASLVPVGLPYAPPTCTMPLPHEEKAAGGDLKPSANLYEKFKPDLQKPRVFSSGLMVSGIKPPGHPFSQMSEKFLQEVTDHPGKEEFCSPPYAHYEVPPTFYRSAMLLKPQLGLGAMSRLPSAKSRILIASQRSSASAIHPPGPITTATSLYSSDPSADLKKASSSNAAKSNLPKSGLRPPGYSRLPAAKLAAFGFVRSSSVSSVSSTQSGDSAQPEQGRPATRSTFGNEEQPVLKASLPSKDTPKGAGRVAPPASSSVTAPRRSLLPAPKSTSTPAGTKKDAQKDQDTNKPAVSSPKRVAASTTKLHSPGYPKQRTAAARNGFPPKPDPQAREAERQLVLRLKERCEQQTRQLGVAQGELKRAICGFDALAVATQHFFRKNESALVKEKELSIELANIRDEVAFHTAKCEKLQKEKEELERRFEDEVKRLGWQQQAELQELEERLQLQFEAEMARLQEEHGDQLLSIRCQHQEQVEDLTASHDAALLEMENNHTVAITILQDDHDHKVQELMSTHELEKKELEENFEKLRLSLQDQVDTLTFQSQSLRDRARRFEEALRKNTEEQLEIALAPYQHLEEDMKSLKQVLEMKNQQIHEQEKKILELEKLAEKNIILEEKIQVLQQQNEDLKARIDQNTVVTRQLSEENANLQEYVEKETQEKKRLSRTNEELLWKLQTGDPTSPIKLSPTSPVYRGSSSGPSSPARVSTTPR
B3: Coiled-coil alpha-helical rod protein 1 (Homo sapiens), Q8TD31 (parent)
chain: B1 chain
partner: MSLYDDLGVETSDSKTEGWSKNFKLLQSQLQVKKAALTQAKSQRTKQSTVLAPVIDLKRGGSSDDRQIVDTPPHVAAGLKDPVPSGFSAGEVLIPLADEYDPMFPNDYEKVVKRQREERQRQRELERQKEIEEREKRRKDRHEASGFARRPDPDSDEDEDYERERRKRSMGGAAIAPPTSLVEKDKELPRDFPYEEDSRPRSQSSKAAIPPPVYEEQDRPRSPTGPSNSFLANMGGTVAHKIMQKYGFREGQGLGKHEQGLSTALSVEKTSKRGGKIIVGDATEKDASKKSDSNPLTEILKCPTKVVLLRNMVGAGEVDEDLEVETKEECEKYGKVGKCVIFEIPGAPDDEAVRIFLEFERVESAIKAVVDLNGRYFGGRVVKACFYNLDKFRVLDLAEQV
B4: Coiled-coil alpha-helical rod protein 1 (Homo sapiens), Q8TD31 (parent)
chain: B1 chain
partner: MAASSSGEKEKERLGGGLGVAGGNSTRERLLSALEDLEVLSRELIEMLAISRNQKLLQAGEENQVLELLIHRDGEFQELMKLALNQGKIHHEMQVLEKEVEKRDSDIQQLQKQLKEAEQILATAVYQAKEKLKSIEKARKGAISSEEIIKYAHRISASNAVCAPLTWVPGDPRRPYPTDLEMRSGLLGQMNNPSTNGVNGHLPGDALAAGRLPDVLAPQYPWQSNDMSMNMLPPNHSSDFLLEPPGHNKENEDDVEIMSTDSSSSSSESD

Variants of: B1
Conditions: with traf2_human TRAF2, Q12933
In the case of W337R, the “effect of a mutation on the interaction” value is reported as “disrupting interaction strength”.

Variants of: B2
Conditions: with mtus2_human MTUS2, Q5JR59
With W337R the “effect of a mutation on the interaction” value was “disrupting interaction strength”.

Variants of: B3
Conditions: with spf45_human RBM17, Q96I25
With W337R the “effect of a mutation on the interaction” value was “disrupting interaction strength”.

Variants of: B4
Conditions: with med4_human MED4, Q9NPJ6
For W337R, the “effect of a mutation on the interaction” value was “with no effect”.
